# T1: MATR3 fragment 1-287 (Homo sapiens, UniProt P43243 SEQ:1-287)
# T1 sequence: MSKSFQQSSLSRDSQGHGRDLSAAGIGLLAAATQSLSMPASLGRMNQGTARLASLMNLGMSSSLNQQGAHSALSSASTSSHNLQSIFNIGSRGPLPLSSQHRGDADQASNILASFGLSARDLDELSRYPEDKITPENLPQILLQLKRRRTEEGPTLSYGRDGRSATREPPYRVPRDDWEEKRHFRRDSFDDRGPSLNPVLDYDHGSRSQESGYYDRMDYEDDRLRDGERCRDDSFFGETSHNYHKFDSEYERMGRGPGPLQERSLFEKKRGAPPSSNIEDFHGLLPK
# How the values were obtained:
# MATR3 fragment 1-287 = molecular target: T1, MATR3 fragment 1-287; assay: EMSA; MATR3 1-287 alone unable to bind DNA; lacks nucleic acid binding domains; details: tags: GST (pGEX2tk)
# Experimental: (§1) Twenty femtomoles of probes were incubated with 15 pmol of in vitro purified 6xHis DUX4 dbd and/or GST-MATR3 1-287 proteins in the presence of 1 μg of poly(dI:dC) and 5 μg of salmon sperm DNA in a buffer containing 10 mM Tris, pH 7.5, 0.1 mM EDTA, 1 mM DTT, 100 mM KCl, 3 mM MgCl2, 12% glycerol.
# (§2) After 2 h incubation at RT, DNA-protein complexes were separated by electrophoresis in 8% (w/v) acrylamide gels formed in 0.5×TBE (Sigma-Aldrich) and run in the same buffer at 5 mA at 4° C. Then, the gels were transferred on a Biodyne nylon membrane (Thermo Scientific) at 380 mA for 45 min at 4° C. The membrane was crosslinked at 120 mJ/cm2 with an UV-Stratalinker and the biotin-labelled DNA was detected by chemiluminescence using the LightShift Chemiluminescent EMSA Kit (Thermo Scientific) following the manufacturer's protocol.
# [1] = molecular target: DUX4 DNA-binding domain (dbd) (Homo sapiens, UniProt Q6RFH8 SEQ:1-150); assay: EMSA; binding inhibited by recombinant MATR3 1-287; details: tags: 6xHis-GB1 (pET-GB1)
# Experimental: as §1, §2
# Chain of DUX4 DNA-binding domain (dbd) (Q6RFH8 1-150): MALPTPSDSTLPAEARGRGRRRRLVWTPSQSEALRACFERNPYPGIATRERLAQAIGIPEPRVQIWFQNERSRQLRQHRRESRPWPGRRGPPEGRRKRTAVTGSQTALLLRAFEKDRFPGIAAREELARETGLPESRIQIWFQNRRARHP
binder,measurement,setting,value
FRG1 Peak 1 EMSA probe (dsDNA) DNA 1: AATTGTAGCTATAATTCAATCATCTAAATTG DNA 2: CAATTTAGATGATTGAATTATAGCTACAATT,binding result,MATR3 fragment 1-287,no binding
same,binding result,[1],binds

# Source: patent US20220098252, “INHIBITOR OF DUX4 AND USES THEREOF” (OSPEDALE SAN RAFFAELE S.R.L., published 2022)
